Reference: publication PMC10934782, “Electrochemical Sensors Based on Self-Assembling Peptide/Carbon Nanotube Nanocomposites for Sensitive Detection of Bisphenol A” (Sensors (Basel, Switzerland), 2024)

Target: the molecule itself
Assay: negative-stain TEM + turbidity + circular dichroism + rheology; Z23 alone (no MWCNTs) in PBS, assembly triggered by adding 10x PBS to the aqueous peptide solution; room temperature (rheology 1 wt% in PBS at 25 °C); turbidity at 313 nm

B1: cationic amphiphilic self-assembling peptide (SAP) Z23 (peptide)
peptide: Ac-KFKFQFKFK-NH2
notes: Designed self-assembling peptide; forms nanofibers and a hydrogel in PBS; source: synthetic peptide; bought: Shanghai Top-peptide Biotechnology Co. Ltd. (purity > 95%)
B1: binds.
